This note sets out measurements from patent US20200040058A1 (JULIUS MAXIMILIANS UNIVERSIT T W RZBURG, published 2020).

B1: humanized R12 ROR1 CAR (other)
chain: QVQLVESGGALVQPGGSLTLSCKASGFDFSAYYMSWVRQAPGKGLEWIATIYPSSGKTYYAASVQGRFTISADNAKNTVYLQMNSLTAADTATYFCARDSYADDGALFNIWGQGTLVTVSSGGGGSGGGGSGGGGSQLVLTQSPSVSAALGSSAKITCTLSSAHKTDTIDWYQQLAGQAPRYLMYVQSDGSYEKRSGVPDRFSGSSSGADRYLIISSVQADDEADYYCGADYIGGYVFGGGTQLTVGESKYGPPCPPCPMFWVLVVVGGVLACYSLLVTVAFIIFWVKRGRKKLLYIFKQPFMRPVQTTQEEDGCSCRFPEEEEGGCELRVKFSRSADAPAYQQGQNQLYNELNLGRREEYDVLDKRRGRDPEMGGKPRRKNPQEGLYNELQKDKMAEAYSEIGMKGERRRGKGHDGLYQGLSTATKDTYDALHMQALPPR
notes: Chimeric antigen receptor with an scFv targeting domain, on primary human T cells; also called hR12 CAR; hR12
B2: humanized 2A2 ROR1 CAR (other)
chain: EVQLVQSGAEVKKPGASVKVSCKASGYTFSDYEMHWVRQAPGQGLEWLGAIDPETGGTAYNQKFKGRVTMTGDTSISTAYMELSRLTSDDTAVYYCTGYYDYDSFTYWGQGTLVSVSSGGGGSGGGGSGGGGSDIQMTQSPSSLSTSVGDRVTITCKASQNVDAAVAWYQQKPGKAPKLLIYSASNRYTGVASRFSGSGSGTDFTFTISSLQSEDLADYFCQQYDIYPYTFGQGTKLEIKESKYGPPCPPCPMFWVLVVVGGVLACYSLLVTVAFIIFWVKRGRKKLLYIFKQPFMRPVQTTQEEDGCSCRFPEEEEGGCELRVKFSRSADAPAYQQGQNQLYNELNLGRREEYDVLDKRRGRDPEMGGKPRRKNPQEGLYNELQKDKMAEAYSEIGMKGERRRGKGHDGLYQGLSTATKDTYDALHMQALPPR
notes: Chimeric antigen receptor with an scFv targeting domain, expressed on primary human T cells after lentiviral transduction; also called h2A2 CAR; h2A2
B3: non-humanized R12 ROR1 CAR (other)
chain: QEQLVESGGRLVTPGGSLTLSCKASGFDFSAYYMSWVRQAPGKGLEWIATIYPSSGKTYYATWVNGRFTISSDNAQNTVDLQMNSLTAADRATYFCARDSYADDGALFNIWGPGTLVTISSGGGGSGGGGSGGGGSELVLTQSPSVSAALGSPAKITCTLSSAHKTDTIDWYQQLQGEAPRYLMQVQSDGSYTKRPGVPDRFSGSSSGADRYLIIPSVQADDEADYYCGADYIGGYVFGGGTQLTVTG
notes: Chimeric antigen receptor on primary human T cells; also called R12 CAR; non-humanized R12 CAR; not shown: spacer, transmembrane, 4-1BB and CD3z parts of the non-humanized CAR are not spelled out; construct described only by re
B4: non-humanized 2A2 ROR1 CAR (other)
chain: QVQLQQSGAELVRPGASVTLSCKASGYTFSDYEMHWVIQTPVHGLEWIGAIDPETGGTAYNQKFKGKAILTADKSSSTAYMELRSLTSEDSAVYYCTGYYDYDSFTYWGQGTLVTVSAGGGGSGGGGSGGGGSDIVMTQSQKIMSTTVGDRVSITCKASQNVDAAVAWYQQKPGQSPKLLIYSASNRYTGVPDRFTGSGSGTDFTLTISNMQSEDLADYFCQQYDIYPYTFGGGTKLEIK
notes: Chimeric antigen receptor on primary human T cells; also called 2A2 CAR; non-humanized 2A2 CAR; not shown: spacer, transmembrane, 4-1BB and CD3z parts of the non-humanized CAR are not spelled out; construct described only by re

In the first assay the target is ROR1 on ROR1-positive target cells (K562-ROR1, MDA-MB-231, A549) (human, UniProt Q01973 30-937). Description: cell-based or functional assay.
Sequence of ROR1 on ROR1-positive target cells (K562-ROR1, MDA-MB-231, A549) (Q01973 30-937): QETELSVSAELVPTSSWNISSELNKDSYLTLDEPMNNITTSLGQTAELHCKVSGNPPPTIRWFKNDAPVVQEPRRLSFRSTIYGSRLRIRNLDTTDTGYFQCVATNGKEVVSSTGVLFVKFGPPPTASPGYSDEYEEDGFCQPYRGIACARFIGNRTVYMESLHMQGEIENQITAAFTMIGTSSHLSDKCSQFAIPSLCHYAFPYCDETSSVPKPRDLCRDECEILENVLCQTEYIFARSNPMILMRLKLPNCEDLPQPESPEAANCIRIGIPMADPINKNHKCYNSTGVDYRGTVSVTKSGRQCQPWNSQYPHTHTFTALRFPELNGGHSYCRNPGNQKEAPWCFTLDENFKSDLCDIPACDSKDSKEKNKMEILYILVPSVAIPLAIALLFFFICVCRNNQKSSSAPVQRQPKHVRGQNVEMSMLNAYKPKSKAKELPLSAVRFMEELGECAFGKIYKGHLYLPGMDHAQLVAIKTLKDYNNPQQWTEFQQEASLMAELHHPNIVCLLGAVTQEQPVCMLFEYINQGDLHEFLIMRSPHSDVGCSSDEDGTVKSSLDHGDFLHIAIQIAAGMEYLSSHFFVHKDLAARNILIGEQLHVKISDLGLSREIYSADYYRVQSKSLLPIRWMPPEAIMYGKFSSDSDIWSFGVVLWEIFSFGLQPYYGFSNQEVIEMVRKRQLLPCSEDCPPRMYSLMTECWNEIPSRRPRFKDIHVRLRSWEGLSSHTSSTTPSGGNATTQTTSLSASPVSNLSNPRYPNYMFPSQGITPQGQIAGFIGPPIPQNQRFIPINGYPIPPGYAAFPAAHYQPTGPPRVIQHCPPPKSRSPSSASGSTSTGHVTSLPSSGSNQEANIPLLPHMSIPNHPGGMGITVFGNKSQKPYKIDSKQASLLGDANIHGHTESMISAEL
Consider B1, for which the “proliferation index with MDA-MB-231 target cells, fold against the non-humanized R12 CAR” value was roughly 2 fold.

The target of a further assay is T1, Recombinant aggregated ROR1 protein, AlexaFluor647-labeled (UniProt Q01973 30-403, limits assumed, labeled with AlexaFluor647).
T1 construct: Soluble labelled protein used to stain CAR T cells; also called ROR1 antigen
T1 sequence (Q01973 30-403 limits assumed): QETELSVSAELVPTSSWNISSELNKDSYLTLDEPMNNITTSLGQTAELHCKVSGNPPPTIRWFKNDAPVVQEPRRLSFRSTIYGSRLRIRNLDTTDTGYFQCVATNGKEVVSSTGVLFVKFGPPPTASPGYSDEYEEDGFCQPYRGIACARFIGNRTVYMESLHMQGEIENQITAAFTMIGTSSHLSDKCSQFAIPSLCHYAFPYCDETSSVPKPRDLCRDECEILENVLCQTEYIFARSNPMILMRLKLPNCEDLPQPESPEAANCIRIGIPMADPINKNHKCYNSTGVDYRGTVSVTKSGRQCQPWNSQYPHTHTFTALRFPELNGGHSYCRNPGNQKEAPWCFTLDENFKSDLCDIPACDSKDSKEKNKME
Description: flow cytometry; CAR T cells stained with 5.3 µg/ml AlexaFluor647-labeled aggregated ROR1. The method, then:
Afterwards the cells were washed with PBS, 0.25% FCS and analyzed by flow cytometry.
Recombinant aggregated ROR1 protein was labeled with the AlexaFluor647 labeling kit (ThermoFisher Scientific, MA) and used to stain T cells expressing ROR1 CARs. The T cells were washed once in PBS, 0.25% FCS and then resuspended in the same buffer containing a final concentration of 5.3 μg/ml labeled ROR1 protein and monoclonal αEGFRt antibody. After an incubation time of 15 min the cells were washed with an excess of PBS, 0.25% FCS and analyzed by flow cytometry.
As to B1, the “percentage of T cells with a distinct AlexaFluor647 signal” value amounted to 79% and the “percentage of T cells with high AlexaFluor647 signal” value is 7.68%.

In the case of B2, the “percentage of T cells with a distinct AlexaFluor647 signal” value came to 92.1% and the “percentage of T cells with high AlexaFluor647 signal” value came to 20%.

Regarding B3, the “percentage of T cells with a distinct AlexaFluor647 signal” value stood at 47.6% and the “percentage of T cells with high AlexaFluor647 signal” value stood at 0.7%.

As to B4, the “percentage of T cells with a distinct AlexaFluor647 signal” value was 62.7% and the “percentage of T cells with high AlexaFluor647 signal” value came out at 2.61%.
